Results from patent US20260335397A1, “TREATMENT OF GEOGRAPHIC ATROPHY” (Apellis Pharmaceuticals, Inc., priority 2022, published 2026).

Columns and labels:
[1] = test system: geographic atrophy (GA) secondary to age-related macular degeneration (AMD); assay: Post hoc microperimetry perilesional analysis, OAKS study; assay type: in vivo, human; details: 24 months
Method: LS means estimated from MMRM analysis. […] Perilesional area defined as −250 μm inside baseline atrophy border to +250 μm outside atrophy border. dB=decibel; LS=least square; M=month; mITT=modified intent-to-treat; MMRM=mixed-effects model for repeated measures; PEOM=pegcetacoplan every other month; PM=pegcetacoplan monthly; SE=standard error.
A post hoc microperimetry perilesional analysis was performed on patients in the OAKS study to assess whether pegcetacoplan preservation of retinal tissue was reflected in preserved photoreceptor function in retina near GA lesion borders at baseline. Geographic atrophy lesion borders grow at approximately 100-150 microns per year. An assessment was performed of visual function of cells within 250 microns on either side of the lesion border, which are at the highest risk of permanently losing visual function as lesions expand. Reduction of retinal sensitivity as measured by microperimetry reflects loss of function.
Perilesional area (area within 250 microns of each side of GA lesion border) was created on fundus autofluorescence for each patient, and microperimetry endpoints were assessed within this region (68 spots on grid). In this analysis, approximately 21-22 points (out of 68 total—about one-third) qualified as “peri-lesional” using the 500 micron zone definition (250 inside and 250 outside of GA lesion border). A representative image is depicted as FIG. 5. […] Patients in both monthly (0.564 dB; p=0.0650) and every-other-month (EOM) (0.707 dB; p=0.0202) pegcetacoplan treatment groups lost less retinal sensitivity compared to the sham group over 24 months with increasing effects over time. Scotomatous points measure areas of the retina that have lost all light sensitivity and therefore are no longer functioning. Patients in both monthly (−0.680 points; p=0.1444) and EOM (−1.138 points; p=0.0140) pegcetacoplan treatment groups had fewer new scotomatous points compared to sham over 24 months with increasing effects over time.

[2] = Phase 3 safety: TEAEs and tolerability, OAKS and DERBY; assay type: in vivo, human; details: for Endophthalmitis (serious ocular TEAE), % / Endophthalmitis (serious ocular TEAE), M (number of events): infectious and non-infectious
Method: All randomized subjects returned every month to the clinical site for assessments and additional pegcetacoplan or sham injections according to their randomization scheme until Month 12. From Month 12 onwards, subjects return to the clinical site based on their randomized treatment schedule (monthly or EOM) and follow the treatment regimen and assessments outlined in the Visit Schedule until Month 24. Safety was assessed throughout the study by a number of evaluations including: monitoring of AEs, preinjection and postinjection monitoring, blood and urine samples collected, physical examination, vital signs, and follow-up phone calls. Blood samples were also be collected for anti-therapeutic antibodies, genotyping, and clinical repository (if the subject consented to this portion).
Safety endpoints included incidence and severity of ocular and systemic treatment-emergent adverse events; incidence of ADA directed against pegcetacoplan peptide or PEG; incidence of new active CNV in the study eye; incidence of new onset of subclinical CNV in the study eye; incidence of subjects who lost letters based on NL-BCVA categories (≥15, ≥15-<30, ≥30 ETDRS letters); change/shift from baseline in clinical labs and incidence of abnormal lab values; change from baseline in vital signs and incidence of abnormal vital sign results; shift from baseline in ocular examination assessments including slit-lamp examination and indirect ophthalmoscopy; change from baseline in Intra Ocular Pressure (IOP) and incidence of IOP above specified thresholds; and change/shift from baseline in ocular imaging assessments (including specular microscopy; select sites).
The Safety set consisted of all subjects randomized who received at least one injection of pegcetacoplan or sham. Subjects were analyzed according to the actual treatment received. […] This population was used for all safety analyses.

[3] = DERBY, PEOM (N = 208), 24 months
[4] = OAKS, PEOM (N = 212), 24 months

Substance: Poly(oxy-1,2-ethanediyl), α-hydro-ω-hydroxy-, 15,15′-diester with N-acetyl-L-isoleucyl-L-cysteinyl-L-valyl-1-methyl-L-tryptophyl-L-glutaminyl-L-α-aspartyl-L-tryptophylglycyl-L-alanyl-L-histidyl-L-arginyl-L-cysteinyl-L-threonyl-2-[2-(2-aminoethoxy)ethoxy]acetyl-N^6-carboxy-L-lysinamide cyclic (2->12)-(disulfide) [pegcetacoplan]
- microperimetry measures, perilesional ([1]; all p-values nominal): positive trends in microperimetry measures
- new scotomatous points (perilesional) compared to sham ([1]; EOM, p=0.0140 (nominal)): −1.138 points
- less loss of retinal sensitivity (perilesional mean threshold sensitivity) compared to sham ([1]; every-other-month (EOM), p=0.0202 (nominal)): 0.707 dB
- less loss of retinal sensitivity (perilesional mean threshold sensitivity) compared to sham ([1]; monthly, p=0.0650 (nominal)): 0.564 dB
- new scotomatous points (perilesional) compared to sham ([1]; monthly, p=0.1444 (nominal)): −0.680 points
- All TEAEs, % [2, 3]: (86.5%)
- Iridocyclitis (serious ocular TEAE), % [2, 3]: 0.5%
- Iridocyclitis (serious ocular TEAE), M (number of events) [2, 3]: 1 M
- Non-ocular TEAEs, patients, % [2, 3]: (68.3%)
- Ocular TEAEs in study eye, patients, % [2, 3]: (51.9%)
- Serious ocular TEAEs in the study eye, % [2, 3]: 1.0%
- Serious ocular TEAEs in the study eye, M (number of events) [2, 3]: 4 M
- Uveitis (serious ocular TEAE), % [2, 3]: 1.0%
- Uveitis (serious ocular TEAE), M (number of events) [2, 3]: 2 M
- Visual acuity reduced (serious ocular TEAE), % [2, 3]: 0.5%
- Visual acuity reduced (serious ocular TEAE), M (number of events) [2, 3]: 1 M
- All TEAEs, % ([2]; DERBY, PM (N = 206), 24 months): (86.4%)
- Non-ocular TEAEs, patients, % ([2]; DERBY, PM (N = 206), 24 months): (79.1%)
- Ocular TEAEs in study eye, patients, % ([2]; DERBY, PM (N = 206), 24 months): (60.7%)
- Optic ischemic neuropathy (serious ocular TEAE), % ([2]; DERBY, PM (N = 206), 24 months): 0.5%
- Optic ischemic neuropathy (serious ocular TEAE), M (number of events) ([2]; DERBY, PM (N = 206), 24 months): 1 M
- Retinal tear (serious ocular TEAE), % ([2]; DERBY, PM (N = 206), 24 months): 0.5%
- Retinal tear (serious ocular TEAE), M (number of events) ([2]; DERBY, PM (N = 206), 24 months): 1 M
- Serious ocular TEAEs in the study eye, % ([2]; DERBY, PM (N = 206), 24 months): 1.9%
- Serious ocular TEAEs in the study eye, M (number of events) ([2]; DERBY, PM (N = 206), 24 months): 4 M
- Vitritis (serious ocular TEAE), % ([2]; DERBY, PM (N = 206), 24 months): 1.0%
- Vitritis (serious ocular TEAE), M (number of events) ([2]; DERBY, PM (N = 206), 24 months): 2 M
- All TEAEs, % [2, 4]: (88.2%)
- Non-ocular TEAEs, patients, % [2, 4]: (77.8%)
- Ocular TEAEs in study eye, patients, % [2, 4]: (58.0%)
- Retinal detachment (serious ocular TEAE), % [2, 4]: 0.5%
- Retinal detachment (serious ocular TEAE), M (number of events) [2, 4]: 1 M
- Serious ocular TEAEs in the study eye, % [2, 4]: 1.9%
- Serious ocular TEAEs in the study eye, M (number of events) [2, 4]: 4 M
- Endophthalmitis (serious ocular TEAE), % [2, 4]: 1.4%
- Endophthalmitis (serious ocular TEAE), M (number of events) [2, 4]: 3 M
- All TEAEs, % ([2]; OAKS, PM (N = 213), 24 months): (90.1%)
- Hyphema (serious ocular TEAE), % ([2]; OAKS, PM (N = 213), 24 months): 0.5%
- Hyphema (serious ocular TEAE), M (number of events) ([2]; OAKS, PM (N = 213), 24 months): 1 M
- Non-ocular TEAEs, patients, % ([2]; OAKS, PM (N = 213), 24 months): (81.7%)
- Ocular TEAEs in study eye, patients, % ([2]; OAKS, PM (N = 213), 24 months): (62.4%)
- Optic ischemic neuropathy (serious ocular TEAE), % ([2]; OAKS, PM (N = 213), 24 months): 0.9%
- Optic ischemic neuropathy (serious ocular TEAE), M (number of events) ([2]; OAKS, PM (N = 213), 24 months): 2 M
- Papilledema (serious ocular TEAE), % ([2]; OAKS, PM (N = 213), 24 months): 0.5%
- Papilledema (serious ocular TEAE), M (number of events) ([2]; OAKS, PM (N = 213), 24 months): 1 M
- Retinal detachment (serious ocular TEAE), % ([2]; OAKS, PM (N = 213), 24 months): 0.5%
- Retinal detachment (serious ocular TEAE), M (number of events) ([2]; OAKS, PM (N = 213), 24 months): 1 M
- Serious ocular TEAEs in the study eye, % ([2]; OAKS, PM (N = 213), 24 months): 2.3%
- Serious ocular TEAEs in the study eye, M (number of events) ([2]; OAKS, PM (N = 213), 24 months): 7 M
- Endophthalmitis (serious ocular TEAE), % ([2]; OAKS, PM (N = 213), 24 months): 0.9%
- Endophthalmitis (serious ocular TEAE), M (number of events) ([2]; OAKS, PM (N = 213), 24 months): 2 M
- tolerability ([2]; both Phase 3 studies): well tolerated
